Measurements as given in doi:10.1101/2022.11.30.518485 (bioRxiv, 2022).

Columns and labels:
[1] = target: Abeta in AD (senile plaques) (Homo sapiens, UniProt P05067); test: immunostaining of cells or tissue
[2] = target: tau pathology in PSP and AD (Homo sapiens, UniProt P10636); test: immunostaining of cells or tissue
tau pathology in PSP and AD, sequence (P10636 whole entry): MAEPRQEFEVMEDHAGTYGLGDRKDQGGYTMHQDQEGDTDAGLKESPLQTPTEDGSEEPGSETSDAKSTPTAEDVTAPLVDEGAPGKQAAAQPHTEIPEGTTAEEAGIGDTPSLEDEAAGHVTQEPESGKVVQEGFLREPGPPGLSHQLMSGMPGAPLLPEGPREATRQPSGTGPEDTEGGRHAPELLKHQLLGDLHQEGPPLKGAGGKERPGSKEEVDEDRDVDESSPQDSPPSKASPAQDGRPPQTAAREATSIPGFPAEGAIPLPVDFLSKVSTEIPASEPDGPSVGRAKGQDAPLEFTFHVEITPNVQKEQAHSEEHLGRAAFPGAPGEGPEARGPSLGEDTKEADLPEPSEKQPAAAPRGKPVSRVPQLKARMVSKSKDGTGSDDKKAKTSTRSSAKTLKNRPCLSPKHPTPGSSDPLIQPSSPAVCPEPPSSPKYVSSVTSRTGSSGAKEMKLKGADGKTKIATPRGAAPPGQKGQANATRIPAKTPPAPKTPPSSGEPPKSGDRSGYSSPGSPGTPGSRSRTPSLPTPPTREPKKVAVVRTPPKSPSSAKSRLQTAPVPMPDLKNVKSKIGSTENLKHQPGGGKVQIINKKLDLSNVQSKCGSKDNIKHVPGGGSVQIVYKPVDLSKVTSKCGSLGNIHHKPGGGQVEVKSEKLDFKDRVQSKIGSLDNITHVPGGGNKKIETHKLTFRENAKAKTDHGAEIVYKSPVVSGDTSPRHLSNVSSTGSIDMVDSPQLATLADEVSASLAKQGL

binding result [1]: no binding (tested: 1:10000 dilution)
binding result [2]: no binding (tested: 1:10000 dilution)
B1: 306C7B3 (native IgG purified from the hybridoma clone) (antibody, V domains shown)
VH: EVQLVESGGGLVKPGGSRKLSCAASGFTFSDHGMHWVRQAPEKGLEWVAYISSGSSTIYYADTVKGRFTISRDNAKNTLFLQMTSLRSEDTAMYYCARSYIPYWGQGTLVTVSA
VL: DVVMTQTPLSLPVSLGDQASISCRSSQSLVHSNGNTYLHWYLQKPGQSPKLLIYKVSNRFSGVPDRFSGSGSGTDFTLKISRVEAEDLGVYFCSQSTHVPWTFGGGTKLEIK
